According to publication PMC5961942:

Biological target: trimeric PD-L1 trap (mouse) (UniProt Q02242)
Assay: SDS-PAGE without reducing agent

stoichiometry N: 3
Substance: trimeric PD-L1 trap (from UniProt Q02242 21-150; P51942 458-500) (designed binder)
